Source: patent US6342348 (GENETECH, dated 2002)

Biological target: T1, recombinant soluble rat GDNFRα (rat, UniProt Q62997 25-427, limits assumed)
T1 construct: also called rGDNFRα; GFR-alpha-1
T1 sequence (looked up): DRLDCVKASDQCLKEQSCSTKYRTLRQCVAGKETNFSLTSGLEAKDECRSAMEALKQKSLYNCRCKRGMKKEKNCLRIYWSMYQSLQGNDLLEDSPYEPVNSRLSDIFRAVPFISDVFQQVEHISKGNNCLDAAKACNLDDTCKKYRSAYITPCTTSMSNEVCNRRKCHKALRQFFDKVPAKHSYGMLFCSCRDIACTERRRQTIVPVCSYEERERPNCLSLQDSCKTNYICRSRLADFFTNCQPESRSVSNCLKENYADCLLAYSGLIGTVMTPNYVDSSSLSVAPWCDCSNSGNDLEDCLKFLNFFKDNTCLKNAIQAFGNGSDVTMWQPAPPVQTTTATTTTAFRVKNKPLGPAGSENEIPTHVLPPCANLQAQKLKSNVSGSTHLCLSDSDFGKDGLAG
Test: equilibrium competition binding of ^125I-rGDNF to recombinant soluble rGDNFRα, Scatchard

B1: rat GDNF (ligand, UniProt Q07731 78-211, looked up)
chain: SPDKQAAALPRRERNRQAAAASPENSRGKGRRGQRGKNRGCVLTAIHLNVTDLGLGYETKEELIFRYCSGSCEAAETMYDKILKNLSRSRRLTSDKVGQACCRPVAFDDDLSFLDDSLVYHILRKHSAKRCGCI
modifications: ^125I label (iodinated either on tyrosine by the Bolton Hunter method or on lysine using lactoperoxidase)
notes: also called rGDNF; RGDNF
  Kd: 3 pM
